The values below come from the RNAGym collection of RNA variant scans (doi:10.1073/pnas.2313332121).

B1: TPR t1 (parent)
chain: GACCAAUCUGCCCUCAGAGCUCGAGAACAUCUUCGGAUGCAGAGGAGGCAGGCUUCGGUGGCGCGAUAGCGCCAACGUCCUCAACCUCCAAUGCAUCCCACCACAUGAUGAUGCCUGAAGAGCCUUGGUUUUUUG

This series covers variants of B1. In words: polymerase ribozyme fitness, log enrichment relative to wild type (log ratio); higher = more active; in vitro selection for triplet polymerase activity. A digest of the protocol:
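Each subunit of a heterodimeric triplet polymerase ribozyme was mutagenized into a library by PCR, transcribed, and subjected to one round of in vitro selection, run in triplicate. Libraries were annealed with a biotinylated primer, the partner subunit and triplets, incubated frozen at −7 °C, and extended constructs were gel-excised, captured on streptavidin beads and recovered by RT-PCR. Input and output libraries were sequenced on Illumina, keeping genotypes with ≥10 input reads and ≥1 read per output. Fitness is log base 2 of genotype enrichment divided by wild-type enrichment, from inverse-variance-weighted replicate averages.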
Regarding GACCAAUCUGCCCUCAGAGCUCGAGAACAUCUUCGGAUGCAGAGGAGGCAGGCAUCGGUGGCGUGAUAGCGUCAACGUCCUCAACCUCCAAUGCAUCCCACCACAUGAUGAUGCCUGAAGAGCCUUGGUUUUUUG, the “polymerase ribozyme fitness (log ratio)” value was determined as 0.146.
The result for GACCAAUCUGCCCUCAGAGCUCGAGAACAUCUUCGGAUGCAGAGGAGGCAGGUUUCGGUGGCGCGAUAGCGCCAACGUCCCCAACCUCCAAUGCAACCCACCACAUGAUGAUGCCUGAAGAGCCUUGGUUUUUUG reads -2.89; that for GACCAAUCUGCCCUCAGAGCUCGAGAACAUCUUCGGAUGCAGAGGAGGCAGGUUUCGGUGGCGCGAUAGCGCCAACGUCCUCAACCUCCAAUGCAUCCCACCACAUGAUGAUACCUGAAGAGCCUUGGUUUUUUG, -1.57; that for GACCAAUCUGCCCUCAGAGCUCGAGAACAUCUUCGGAUGCAGAGGAGGCAGGUUUCGGUGGCGCGAUAGCGCCAACGUCCUCAACCUCCAAUGCAUCCCACCACAUGAAGAUGCCUGAAGAGCCUUGGUUUUUUG, -5.04.
GACCAAUCUGCCCUCAGAGCUCGAGAACAUCUUCGGAUGCAGAGGAGGCAGGCAUCGGUGGCGCGAUAGCGCCAACGUCCUCUACCUCCAAUGCAUCCCACCACAUGAUUAUGCCUGAAGAGCCUUGGUUUUUUG: the “polymerase ribozyme fitness (log ratio)” value was -3.19.
The same measure for GACCAAUCUGCCCUCAGAGCUCGAGAACAUCUUCGGAUGCAGAGGAGGCAGGUUUCGGUGGCGCGAUAGCGCCAACGUCCUCAACCUCCAAUGCAGCCCACCACAUGAUGAUCCCUGAAGAGCCUUGGUUUUUUG: -2.77; for GACCAAUCUGCCCUCAGAGCUCGAGAACAUCUUCGGAUGCAGAGGAGGCAGGCAUCGGUGGCGCGAUAGCGCCAACGUCCUCAACCUCCAAUGCAUCCCACCACAUGAUGAUGCCUGAAGAGCCUUGGUUUUUUG: 0.0154.
The same measure for GACCAAUCUGCCCUCAGAGCUCGAGAACAUCUUCGGAUGCAGAGGAGGCAGGUUUCGGUGGCGCGAUAGCGCCAACGUCCUCAACCUCCAAUGCAUCCCACCACAUGAUGAUGCCUGAAGAGCCUUGGUUUCUUG: -0.221; for GACCAAUCUGCCCUCAGAGCUCGAGAACAUCUUCGGAUGCAGAGGAGGCAGGUUUCGGUGGCGCGAUAGCUCCAACGUCCUCAACCUCCAAAGCAUCCCACCACAUGAUGAUGCCUGAUGAGCUUUGGUUUUUUG: -2.62; for GACCAAUCUGCCCUCAGAGCUCGAGAACAUCUUCGGAUGCAGAGGAGGCAGGUUUCGGUGGCGCGAUAGCGCCAACGUCCUCAACCUCCAAUGCAUCCCACCACAUGAUGAUGCCUGAAGAGCCUUGGUUGUUUG: -0.948.
On to GACCAAUCUGCCCUCAGAGCUCGAGAACAUCUUCGGAUGCAGAGGAGGCAGGUUUCGGUGGCGCGAUAGCGCCAACGUCCUCAACCUCCAAUGCAUCCCACCACAUGAUGAUGCCUCAAGAGCCUUGGUUUUUUG, for which the “polymerase ribozyme fitness (log ratio)” value was -3.1.
The result for GACCAAUCUGCCCUCAGAGCUCGAGAACAUCUUCGGAUGCAGAGGAGGCAGGUUUCGGUGGCGCGAUAGCGCCAACGUCCUCAACCUCCAAUGCAUCCCACCACAUGAUGAUGCCUUAAGAGCCUUGGUUUUUUG reads -2.22; that for GACCAAUCUGCCCUCAGAGCUCGAGAACAUCUUCGGAUGCAGAGGAGGCAGGCAUCGGUGGUGCGAUAGCGCCAACGUCCUCAACCUCCAAUGCAUCCCACCACAUGAUGAUGCCUGAAGAGCCUUGGUUUUUUG, -1.02; that for GACCAAUCUGCCCUCAGAGCUCGAGAACAUCUUCGGAUGCAGAGGAGGCAGGCAUCGGUGGAGCGAUAGCGCCAACGUCCUCAACCUCCAAUGCAUCCCACCACAUGAUGAUGCCUGAAGAGCCUUGGUUUUUUG, -0.751.
The same measure for GACCAAUCUGCCCUCAGAGCUCGAGAACAUCUUCGGAUGCAGAGGAGGCAGGCAUCGGUGGAACGAUAGCGCCAACGUCCUCAACCUACAAUGCAUCCCACCACAUGAUGAUGCCUGAAGAGCCUUGGUUUUUUG: -3.95; for GACCAAUCUGCCCUCAGAGCUCGAGAACAUCUUCGGAUGCAGAGGAGGCAGGCAUCGGUGGUGUGAUAGCGCCAACGUCCUCAACCUCCAAUGCAUCCCACCACAUGAUGAUGCCUGAAGAGCCUUGGUUUUUUG: -0.217.
The result for GACCAAUCUGCCCUCAGAGCUCGAGAACAUCUUCGGAUGCAGAGGAGGCAGGUUUCGGUGGCGCGAUAGCACCAACGUCCUCAACCUCCAAUGCAUCCCACCACAUGAUGAUGCCUGAAGAGCAUUGCUUUUUUG reads -1.39.
In the case of GACCAAUCUGCCCUCAGAGCUCGAGAACAUCUUCGGAUGCAGAGGAGGCAGGCAUCGGUGGCGCGAUAGCGCCUACGUCCUCAACCUCCAAUGCAUCCCACCACAUGAUGAUGCCUGAAGAGCGUUGGUUUUUUG, the “polymerase ribozyme fitness (log ratio)” value turned out to be 0.443.
For the variant GACCAAUCUGCCCUCAGAGCUCGAGAACAUCUUCGGAUGCAGAGGAGGCAGGUUUCGGUGGCGCGAUAGCGCCAACGCCCUCAACCUCUAAUGCGUCCCAGCACAUGAUGAUGUCUGAAGAGCCAUGAUUUUUUG, the “polymerase ribozyme fitness (log ratio)” value is -5.82.
Turning to GACCAAUCUGCCCUCAGAGCUCGAGAACAUCUUCGGAUGCAGAGGAGGCAGGUUUCGGUGGCGCGAUAGCGCCAACGUCCUCAACCUCCAAUUCAUCCCACCACAUGAUGAUGCCUGAAGAGCCUUGGUUUUUUG, the “polymerase ribozyme fitness (log ratio)” value was -0.832.
The result for GACCAAUCUGCCCUCAGAGCUCGAGAACAUCUUCGGAUGCAGAGGAGGCAGGUUUCGGUGGCGCGAUAGCGCCAACGUCCUCAACCUCCAAUCCAUCCCACCACAUGAUGAUGCCUGAAGAGCCUUGGUUUUUUG reads -1.07.
